According to patent US6919086B1, “Graminae pollen allergen mutants for specific immunotherapy, and production and use of the same” (Merck Patent Gesellschaft mit, priority 1997, dated 2005):
Read-outs that look alike come from different tables or passages of the source.

Experiments:
[1] = test system: Phl p 5b-reactive T cell lines (TCLs) from allergic patients; assay: Proliferative reaction of Phl p 5b-reactive oligoclonal T cell lines ([3H]-thymidine incorporation); type: cell-based, human; conditions: secondary activator 0.3 μM
Protocol: In the second phase, oligoclonal T cell lines, which have been established by repeated stimulation with the relevant allergens, are employed for the testing. Once again, only those modified recombinant allergens which at least give rise to a stimulation index (SI) of 50% of the SI of the wild type are taken into consideration.
(§1) 40 ml of heparinized blood were obtained from each patient. Peripheral mononuclear cells (PBMC) were then isolated from this blood sample by means of the customary method using density gradient centrifugation. Analogous cell isolations were carried out at a later stage when it was necessary to obtain irradiated autologous antigen-presenting cells (APC) for characterizing the TCL and TCC further. After the PBMC had been counted, TCL which reacted to group 5 allergens in vitro were established as follows and as has already been described in detail elsewhere (Lit. 1): in each well of 24-well microculture plates, from 1.5 to 2.0×10^6 PBMC in 1 ml of culture medium (UltraCulture) were stimulated for 7 days in the added presence of natural Phl p5 allergens (in each case 10 μg/well) which had been purified by immunoaffinity chromatography. A total of from 8 to 10 of these cultures were set up. The isolation of Phl p5 by means of immunoaffinity chromatography has been described in detail (Lit. 2). At the end of the 7 days of culture, IL-2 (from 10 to 20 IU/well) was added to the cell cultures for a further 5 to 7 days. All the individual cultures were then pooled and the T cell blasts were enriched by means of density gradient centrifugation; the TCL which were obtained were then tested in a specific lymphocyte proliferation test (see Lit. 1 as well). For this, 2×10^4/ml TCL blasts were in each case cultured with 5×10^4/ml irradiated autologous APCs in triplicate samples in 96-well microculture plates. 10-20 μg of Phl p5 allergen were added as the specific antigen stimulus. After 56 hours of incubation, ^3H-labelled thymidine (1 μCi/well) was pipetted into the microcultures. After a further 16 hours, the radioactivity which had been incorporated into the proliferating T cell blasts was measured in a beta counter (Matrix 96). The results were calculated, as the arithmetic mean of the multiple samples, in counts per minute (cpm). The criterion for the quality of the TCL was the stimulation index, which was obtained by relating the cpm values with Phl p5 addition to those without Phl p5 addition.
The oligoclonal T cell lines (TCLs) from 8 patients who were allergic to grass pollen (see Ex. 1) were established by repeated activation with natural Ph1 p 5b (a+b) or recombinant rPh1 p 5b or 5a+5b.
The proliferative reaction of these TCLs was tested using the rPh1 p 5b mutants (FIG. 10).

[2] = test system: IgE antibodies of allergic patients; assay: EAST inhibition test (IgE reactivity / allergenicity); type: binding, human; conditions: for IC50: read-out: Inhibition value 50% (concentration of the inhibitor at 50% inhibition); for Allergenic potency (Prel) 25%: relative to native Phl p 5b at 25% inhibition; for Allergenic potency (Prel) 50%: relative to native Phl p 5b at 50% inhibition
Protocol: The effects of the induced mutations on the allergenicity, i.e. the ability to bind to the IgE antibodies of allergic patients, of the modified recombinant allergens is determined qualitatively and quantitatively by means of the EAST inhibition test. […] The extent of the immunochemical relatedness (cross reactivity) can also be quantified. This EAST inhibition test only takes the reaction with IgE antibodies into account.
The binding of the allergens by the IgE antibodies is the basic prerequisite for the allergen-specific activation of the effector cells (mast cells, basophils, inter alia) in type I allergy. The allergen-specific inhibition of the enzyme/allergen sorbent test (EAST) is the best means for qualitatively and quantitatively recording the binding of the allergens to IgE anti-bodies. The EAST inhibition test is carried out as follows. Microtitre plates are coated with allergen (natural or recombinant Ph1 p 5 or Ph1 p 5b) (1 μg/ml). After the unbound allergen molecules have been removed by washing, non-specific plastic binding sites are blocked with bovine serum albumin (0.5%). […] from allergic patients, as a representative pool of 10-30 donors or as an individual serum, is incubated, in a suitable dilution, with the allergen-coated microtritre plates. The bound allergen-specific IgE antibodies are quantified using enzyme-coupled anti-IgE antibodies (e.g. alk. phosphatase-a-IgE antibodies). This binding is inhibited by soluble allergen or the substance to be tested (allergen mutants) in dependence on the concentration. The inhibition curve obtained with the purified natural allergen Ph1 p 5b is used as the reference.

[3] = test system: Phl p 5b-reactive T cell clones (TCCs) from allergic patients; assay: Proliferative reaction of Phl p 5b-reactive T cell clones ([3H]-thymidine incorporation); type: cell-based, human; conditions: final concentration 0.3 μM
Protocol: as §1
After a TCL had been cloned (see below), the specificity of the isolated TCCs were determined as has just been described. Stimulation indices of at least 5 were rated as being positive for the TCCs. The determination of T cell epitopes for defining the T cell-reactive regions on group 5 allergens was also carried out using specific proliferation tests, with 1-2 μg of synthesized dodecapeptide/ml being used for this purpose in each case (see below).
The reactivity of the recombinant Ph1 p 5b mutants was tested on established T cell clones (TCCs) of known specificity. The TCCs derive from patients who are allergic to grass pollen (see Ex. 1) and are directed against the T cell-reactive regions A (FIG. 7), B (FIG. 8) and C (FIG. 9). The T cell reactivity was measured by stimulating the clones to proliferate.

[4] = allergic patient serum pool Bor 18/100
[5] = allergic patient serum pool We 6/97
[6] = individual allergic patient serum II/3
[7] = individual allergic patient serum II/12
[8] = individual allergic patient serum II/17

B1: r Phl p 5b: recombinant wild type Phl p 5b, 265 amino acids, SEQ ID NO 87 (protein)
chain: ADAGYAPATPAAAGAAAGKATTEEQKLIEDINVGFKAAVAAAASVPAADKFKTFEAAFTSSSKAAAAKAPGLVPKLDAAYSVAYKAAVGATPEAKFDSFVASLTEALRVIAGALEVHAVKPVTEEPGMAKIPAGELQIIDKIDAAFKVAATAAATAPADDKFTVFEAAFNKAIKESTGGAYDTYKCIPSLEAAVKQAYAATVAAAPQVKYAVFEAALTKAITAMSEVQKVSQPATGAATVAAGAATTAAGAASGAATVAAGGYKV
[1]; primary stimulator n Phl p 5
  Incorporation of [3H]-thymidine into TCL 1 Wöl (stimulation index class): + (1-2 (+))
  Incorporation of [3H]-thymidine into TCL 2 Eic (stimulation index class): + (1-2 (+))
  Incorporation of [3H]-thymidine into TCL 3 Fre (stimulation index class): + (1-2 (+))
  Incorporation of [3H]-thymidine into TCL 4 Mer (stimulation index class): + (1-2 (+))
[1]; primary stimulator r Phl p 5
  Incorporation of [3H]-thymidine into TCL 5 17.4 (stimulation index class): + (1-2 (+))
[1]; primary stimulator r Phl p 5a, r Phl p 5b
  Incorporation of [3H]-thymidine into TCL 6 Mah (stimulation index class): +++ (>10 (+++))
[1]; primary stimulator r Phl p 5b
  Incorporation of [3H]-thymidine into TCL 7 19.2 (stimulation index class): +++ (>10 (+++))
  Incorporation of [3H]-thymidine into TCL 8 20.1 (stimulation index class): +++ (>10 (+++))
[2]; [4]
  Inhibition value 25% (concentration of the inhibitor at 25% inhibition): 2e-10 mol/L
  IC50: 5 nM
[2]; [5]
  Inhibition value 25% (concentration of the inhibitor at 25% inhibition): 3e-10 mol/L
  IC50: 1400 nM
[2]; [6]
  Inhibition value 25% (concentration of the inhibitor at 25% inhibition): 5.6e-10 mol/L
  IC50: 14 nM
[2]; [7]
  Inhibition value 25% (concentration of the inhibitor at 25% inhibition): 8.7e-10 mol/L
  IC50: 73 nM
[2]; [8]
  Inhibition value 25% (concentration of the inhibitor at 25% inhibition): 2.1e-10 mol/L
  IC50: 4.7 nM
[2]; individual serum II/3
  Allergenic potency (Prel) 25%: 0.9030
  Allergenic potency (Prel) 50%: 0.4190
[2]; individual serum II/12
  Allergenic potency (Prel) 25%: 0.597
  Allergenic potency (Prel) 50%: 0.093
[2]; individual serum II/17
  Allergenic potency (Prel) 25%: 1.045
  Allergenic potency (Prel) 50%: 0.5450
[2]; serum pool Bor 18/100
  Allergenic potency (Prel) 25%: 1.709
  Allergenic potency (Prel) 50%: 0.8410
[2]; serum pool We 6/97
  Allergenic potency (Prel) 25%: 1.697
  Allergenic potency (Prel) 50%: 0.4400
[2]; serum pool Bor 18/100 (20 donors), FIG. 1
  EAST inhibition curve / inhibitory effect (in words): binding curves which are similar to that obtained with natural Ph1 p 5b
[3]; T cell-reactive region A
  Incorporation of [3H]-thymidine into TCC CB 2 (stimulation index class): +++ (>10 (+++))
  Incorporation of [3H]-thymidine into TCC CB 14 (stimulation index class): +++ (>10 (+++))
  Incorporation of [3H]-thymidine into TCC JR 13 (stimulation index class): +++ (>10 (+++))
  Incorporation of [3H]-thymidine into TCC JR 15 (stimulation index class): +++ (>10 (+++))
[3]; T cell-reactive region B
  Incorporation of [3H]-thymidine into TCC DW8 (stimulation index class): + (1-2 (+))
  Incorporation of [3H]-thymidine into TCC UZH2 (stimulation index class): +++ (>10 (+++))
[3]; T cell-reactive region C
  Incorporation of [3H]-thymidine, stimulation index SI, 1st exp.: 11.0
  Incorporation of [3H]-thymidine, stimulation index SI, 2nd exp.: 7.0
  Incorporation of [3H]-thymidine, stimulation index SI, 3rd exp.: 5.5
  Incorporation of [3H]-thymidine, stimulation index class (last column, no head): ++ (5-10 (++))

B2: n Phl p 5b: purified natural allergen Phl p 5b of timothy grass (Phleum pratense), reference of the EAST inhibition (protein)
chain: ADAGYAPATPAAAGAAAGKATTEEQKLIEDINVGFKAAVAAAASVPAADKFKTFEAAFTSSSKAAAAKAPGLVPKLDAAYSVAYKAAVGATPEAKFDSFVASLTEALRVIAGALEVHAVKPVTEEPGMAKIPAGELQIIDKIDAAFKVAATAAATAPADDKFTVFEAAFNKAIKESTGGAYDTYKCIPSLEAAVKQAYAATVAAAPQVKYAVFEAALTKAITAMSEVQKVSQPATGAATVAAGAATTAAGAASGAATVAAGGYKV
[2]; [4]
  Inhibition value 25% (concentration of the inhibitor at 25% inhibition): 3.3e-10 mol/L
  IC50: 4.2 nM
[2]; [5]
  Inhibition value 25% (concentration of the inhibitor at 25% inhibition): 5.1e-10 mol/L
  IC50: 6.1 nM
[2]; [6]
  Inhibition value 25% (concentration of the inhibitor at 25% inhibition): 5.1e-10 mol/L
  IC50: 5.9 nM
[2]; [7]
  Inhibition value 25% (concentration of the inhibitor at 25% inhibition): 5.2e-10 mol/L
  IC50: 6.8 nM
[2]; [8]
  Inhibition value 25% (concentration of the inhibitor at 25% inhibition): 2.2e-10 mol/L
  IC50: 2.6 nM
[2]; individual serum II/3
  Allergenic potency (Prel) 25%: 1.000
  Allergenic potency (Prel) 50%: 1.000
[2]; individual serum II/12
  Allergenic potency (Prel) 25%: 1.000
  Allergenic potency (Prel) 50%: 1.000
[2]; individual serum II/17
  Allergenic potency (Prel) 25%: 1.000
  Allergenic potency (Prel) 50%: 1.000
[2]; serum pool Bor 18/100
  Allergenic potency (Prel) 25%: 1.000
  Allergenic potency (Prel) 50%: 1.000
[2]; serum pool We 6/97
  Allergenic potency (Prel) 25%: 1.000
  Allergenic potency (Prel) 50%: 1.000
